Test results as given in US9046524B1, “Method to quantify and measure excess colipase in a pancreatin active pharmaceutical ingredient” (Scientific Protein Laboratories, LLC, priority 2012, dated 2015).

How the values were obtained:
Type in all cases: biochemical
lipase [1] = target: T1, lipase (Sus scrofa, UniProt P00591); test: Bile salt (Na-TDC) inhibition of lipase activity against tributyrin
T1 construct: purchased USP Rockville, Md; 1494079
T1 sequence (P00591 1-450): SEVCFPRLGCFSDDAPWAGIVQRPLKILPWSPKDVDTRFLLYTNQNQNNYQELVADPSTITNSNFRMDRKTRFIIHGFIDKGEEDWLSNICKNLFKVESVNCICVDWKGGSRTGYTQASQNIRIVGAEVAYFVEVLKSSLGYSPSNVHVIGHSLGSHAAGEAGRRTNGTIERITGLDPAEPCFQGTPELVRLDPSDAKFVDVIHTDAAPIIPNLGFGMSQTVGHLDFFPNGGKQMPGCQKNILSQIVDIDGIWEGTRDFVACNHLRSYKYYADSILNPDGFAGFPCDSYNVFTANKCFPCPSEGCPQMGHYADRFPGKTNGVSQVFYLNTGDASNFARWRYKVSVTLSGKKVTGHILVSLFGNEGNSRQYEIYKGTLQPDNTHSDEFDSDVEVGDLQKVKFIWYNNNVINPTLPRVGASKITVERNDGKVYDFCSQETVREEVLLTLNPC
Procedure: Lipase activity against tributyrin is assayed with different concentration of TDC to determine the CMC for inhibition. The minimum TDC concentration to achieve sufficient inhibition of lipase activity is determined. Five different concentrations (1, 4, 8, 12 and 16 mM) of sodium taurodeoxy-cholate (Na-TDC) are used to determine the CMC of bile salt on two concentrations of lipase (2.5 and 5.0 μg/mL). […] As shown also in FIG. 4, increasing the concentration of bile salt above the CMC results in a progressive inhibition of lipase activity (4-16 mM Na-TDC). […] The lipase inhibition with higher concentration of bile salt (above CMC) is more consistent with the lipase at 5.0 μg/mL when compared to 2.5 μg/mL lipase (FIG. 4).

pancreatin lipase = target: T2, pancreatin lipase (Sus scrofa, UniProt P00591); test: Orlistat inhibition of lipase activity on GTB substrate; settings: 1.0 μM Lipase:Orlistat equal molar, 5 minutes on ice; USP Lipase and pancreatin samples #1, #2, #3; 1 mM Na-TDC
T2 construct: purchased USP Rockville, Md; 1494079; host or cells: also pancreatin API samples #1, #2, #3 (pancreas extract)
T2 sequence (P00591 1-450): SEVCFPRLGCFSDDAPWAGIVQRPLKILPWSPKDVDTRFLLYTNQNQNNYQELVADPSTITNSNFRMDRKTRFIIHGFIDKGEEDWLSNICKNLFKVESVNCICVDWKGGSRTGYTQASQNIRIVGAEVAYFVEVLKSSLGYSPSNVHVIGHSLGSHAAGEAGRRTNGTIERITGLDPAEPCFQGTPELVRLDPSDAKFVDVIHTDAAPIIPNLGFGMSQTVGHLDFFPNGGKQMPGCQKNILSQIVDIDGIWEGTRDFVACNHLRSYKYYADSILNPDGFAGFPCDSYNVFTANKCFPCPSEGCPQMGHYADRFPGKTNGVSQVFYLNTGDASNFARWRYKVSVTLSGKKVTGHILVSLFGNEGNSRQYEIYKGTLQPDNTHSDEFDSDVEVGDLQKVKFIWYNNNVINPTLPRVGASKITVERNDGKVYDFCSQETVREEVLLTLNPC
Procedure: To check the specificity of the substrate GTB, an inhibition experiment is conducted with the specific inhibitor Orlistat (Tetrahydrolipstatin, THL, Sigma #04139). […] To check the specificity of GTB substrate, bile salt below CMC concentration (1 mM Na-TDC) is chosen to obtain maximum lipase activity.
The Orlistat is dissolved in dimethyl sulfoxide (DMSO) to obtain 1.0 mg/mL stock solution. Lipase (USP) and pancreatin samples #1, #2 and #3 are mixed with Orlistat at equal molar concentrations (1.0 μM Lipase:Orlistat) and incubated for 5 minutes on ice. The assays are performed on USP Lipase and pancreatin API samples with and without Orlistat. All the samples are titrated with 0.005 M NaOH for 5 minutes in a glass mixing chamber with 30 mL of substrate mix containing 1 mM Na-TDC at 37° C. temperature and pH 7.5.

lipase [2] = target: T3, lipase (Sus scrofa, UniProt P00591); test: Reactivation of bile salt-inhibited lipase by added colipase
T3 construct: from tissue; host or cells: pancreatin API batches (pancreas extract)
T3 sequence (P00591 1-450): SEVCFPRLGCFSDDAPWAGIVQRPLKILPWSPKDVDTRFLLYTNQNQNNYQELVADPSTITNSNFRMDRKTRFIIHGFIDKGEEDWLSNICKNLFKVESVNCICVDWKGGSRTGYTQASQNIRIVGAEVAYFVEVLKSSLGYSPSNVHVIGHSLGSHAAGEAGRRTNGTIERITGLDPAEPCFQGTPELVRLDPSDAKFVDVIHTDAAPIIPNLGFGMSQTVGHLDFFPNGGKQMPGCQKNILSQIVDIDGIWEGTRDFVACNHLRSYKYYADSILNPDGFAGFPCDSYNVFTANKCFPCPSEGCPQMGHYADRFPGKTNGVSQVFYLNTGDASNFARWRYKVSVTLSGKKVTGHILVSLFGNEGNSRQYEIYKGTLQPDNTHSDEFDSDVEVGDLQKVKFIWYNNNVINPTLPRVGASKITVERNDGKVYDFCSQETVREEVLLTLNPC
T3 sequence (P02703 23-112 partner): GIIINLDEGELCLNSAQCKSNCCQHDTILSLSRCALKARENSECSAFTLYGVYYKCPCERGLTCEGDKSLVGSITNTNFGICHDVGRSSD
Procedure: In yet another embodiment, the effect of colipase on lipase activity and determination of the optimum concentration of colipase to measure the restored lipase activity is studied. The method for colipase determination is based on the principle that lipase inactivated by bile salt is reactivated by colipase (FIG. 1). FIG. 4 supports the theory of reactivation of lipase with the addition of exogenous colipase. As such, different concentrations of bile salt (0, 4, 8, 12 and 16 mM) are tested in the presence of 5.0 μg of lipase per reaction to measure the lipase activity. To each reaction beaker, a different amount of colipase (2.5, 5.0 and 10 μg) is added to the assay mixture prior to the lipase.
However, by adding different concentration of exogenous colipase (Sigma Cat #C3028), lipase activity is restored. In FIG. 5, 2.5 μg colipase, 5.0 μg colipase, and 10.0 μg colipase bars with 4, 8, 12 and 16 mM Na-TDC represent the lipase activity due to reactivation of lipase from addition of exogenous colipase. The presence of colipase at higher concentration will inhibit lypolysis. […] Although the main function of colipase is to restore the activity of the bile salt-inhibited lipase, colipase also has been reported to affect the activity of lipase in absence of bile salts by stabilizing lipase and decreasing its rate of inactivation in the presence of substrate (see Borgstrom and Brockman, 1984). […] Results reveal the most favorable amount of colipase to recover the inhibited lipase is 2.5 μg per assay with 4 mM Na-TDC.
In still another embodiment, a separate study is performed with differing amounts of lipase (2.5, 5.0 and 10 μg per reaction) to determine the maximum recovery of lipase activity in the presence of 4 mM Na-TDC and 2.5 μg added colipase. The colipase content of the sample is determined as a difference between two titration values, the blank with lipase and the test with lipase plus added colipase (test values−blank values). The accuracy of the determination is dependent on the relative proportion between lipase and colipase.
The activity in the absence of added colipase increases with increase in lipase amount, due to presence of endogenous colipase. Further, the lipase activity increases by adding exogenous colipase.

C[C@H](CCC(=O)NCCS(=O)(=O)[O-])[C@H]1CC[C@H]2[C@@H]3CC[C@@H]4C[C@H](O)CC[C@]4(C)[C@H]3C[C@H](O)[C@]12C.O.[Na+] [Na-TDC, sodium taurodeoxycholate hydrate]
effect on lipase activity below CMC (lipase [1]; 1 mM Na-TDC compared to 0 mM): enhancement in lipase activity | effect on lipase activity above the CMC (lipase [1]; 4, 8, 12 & 16 mM Na-TDC, lipase 2.5 and 5.0 μg/mL): almost complete inhibition of lipase activity

CCCCCCCCCCC[C@@H](C[C@@H]1OC(=O)[C@H]1CCCCCC)OC(=O)[C@H](CC(C)C)NC=O [Orlistat]
inhibition of lipase activity (pancreatin lipase): 90%

B1: colipase: Colipase Standard: Sigma Colipase from porcine pancreas Cat #C3028 (protein, UniProt P02703 23-112, looked up)
Colipase: GIIINLDEGELCLNSAQCKSNCCQHDTILSLSRCALKARENSECSAFTLYGVYYKCPCERGLTCEGDKSLVGSITNTNFGICHDVGRSSD
restored lipase activity (lipase [2]; 2.5 μg colipase, 4 mM Na-TDC, 10.0 μg lipase): 0.23 fold | increase in restored lipase activity (lipase [2]; 2.5 μg colipase, 4 mM Na-TDC, 2.5 and 5.0 μg of lipase): two-fold | increase in lipase activity by addition of colipase (lipase [2]; 2.5 μg colipase, without bile salt, 5.0 μg lipase): about 1.5 fold | restored lipase activity with 5 and 10 μg colipase, fold lower than with 2.5 μg colipase (lipase [2]; 16 mM TDC): 4 fold
